How the values were obtained:
hGITR.mmh = target: T1, hGITR.mmh (human); experiment: SPR 37C, mAb capture
T1 construct: soluble monomeric construct; also called human (h) GITR.mmh; monomeric human GITR
T1 chain: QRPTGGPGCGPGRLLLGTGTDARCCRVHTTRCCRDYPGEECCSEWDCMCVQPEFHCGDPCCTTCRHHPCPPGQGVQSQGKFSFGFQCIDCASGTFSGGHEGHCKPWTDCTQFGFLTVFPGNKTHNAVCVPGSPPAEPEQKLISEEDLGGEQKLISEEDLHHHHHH

hGITR.mFc = target: T2, hGITR.mFc (human); experiment: SPR 37C, mAb capture
T2 construct: soluble dimeric construct with mouse Fc; also called dimeric human GITR
T2 chain: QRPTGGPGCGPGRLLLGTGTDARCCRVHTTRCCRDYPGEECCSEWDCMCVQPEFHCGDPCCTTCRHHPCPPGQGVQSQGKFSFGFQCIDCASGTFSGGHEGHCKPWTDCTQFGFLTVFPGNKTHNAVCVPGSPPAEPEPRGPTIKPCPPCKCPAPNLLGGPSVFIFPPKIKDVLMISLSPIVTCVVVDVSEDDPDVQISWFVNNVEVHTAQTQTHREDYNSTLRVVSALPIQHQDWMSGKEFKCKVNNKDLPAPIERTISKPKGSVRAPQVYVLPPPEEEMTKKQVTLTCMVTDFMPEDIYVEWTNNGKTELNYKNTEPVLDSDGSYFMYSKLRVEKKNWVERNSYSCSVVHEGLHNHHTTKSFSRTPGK

mfGITR.mmh = target: T3, mfGITR.mmh (Macaca fasicularis); experiment: SPR 37C, mAb capture
T3 construct: soluble monomeric construct; also called Macaca fasicularis (mf) GITR.mmh; cynomolgus GITR protein
T3 chain: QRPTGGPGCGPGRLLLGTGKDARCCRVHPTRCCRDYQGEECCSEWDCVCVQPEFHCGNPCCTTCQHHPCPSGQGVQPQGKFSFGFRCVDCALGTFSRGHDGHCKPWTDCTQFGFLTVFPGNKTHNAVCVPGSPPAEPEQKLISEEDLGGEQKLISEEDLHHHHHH

[1] = target: T4, human GITR (amino acids M1-V241, NCBI Accession #NP_004186.1) expressed on cells (human, UniProt Q9Y5U5 26-241); experiment: cell-based or functional assay
T4 sequence: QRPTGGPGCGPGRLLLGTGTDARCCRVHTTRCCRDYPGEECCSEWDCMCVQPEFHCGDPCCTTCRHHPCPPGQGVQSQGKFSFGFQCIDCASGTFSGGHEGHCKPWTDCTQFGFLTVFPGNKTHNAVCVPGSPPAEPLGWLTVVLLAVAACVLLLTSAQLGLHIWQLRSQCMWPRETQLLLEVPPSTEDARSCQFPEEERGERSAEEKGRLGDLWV

[2] = target: T4, human GITR (amino acids M1-V241, NCBI …); experiment: cell-based or functional assay; remark: listed apart in the source
[3] = target: T4, human GITR (amino acids M1-V241, NCBI …); experiment: cell-based or functional assay; remark: listed apart in the source
[4] = target: T4, human GITR (amino acids M1-V241, NCBI …); experiment: cell-based or functional assay; remark: listed apart in the source
[5] = target: T4, human GITR (amino acids M1-V241, NCBI …); experiment: ECL cell binding, hGITR/HEK293-D9
In short: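 Cells blocked with 2% BSA, then antibody dilutions from 1.7 pM to 100 nM added 1 h at RT. Bound antibody detected with SULFO-TAG anti-human kappa antibody, electrochemiluminescence read, RLU fitted by four-parameter logistic; signal at 100 nM on hGITR cells versus parental cells also recorded.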

B1: H4H14470P (antibody, human IgG4, V domains shown)
VH: QVQLVESGGGVVQPGRSLRLSCAASGFTVRNYGMHWVRQAPGKGLEWVAVIWYDGSNKYYADSVKGRFTISRDNSKNTLFLQMNSLRAEDTAVYYCARGGELVRGDYYYGMDVWGQGTTVTVSS
VL: DIQMTQSPSSLSASVGDRVTITCRASQGIRNDLGWYQQKPGKAPKRLIYGASSLQSGVPSRFSGSGSGTEFTLTISSLQPEDFATYYCLQHNSYPYTFGQGTKLEIK
notes: human IgG4 (H4H)
hGITR.mmh
  Kd: 64.7 nM
  koff: 0.0143 s⁻¹
  kon: 221000 M⁻¹ s⁻¹
  t½: 0.8 min
hGITR.mFc
  Kd: 1.15 nM
  koff: 0.00104 s⁻¹
  kon: 904000 M⁻¹ s⁻¹
  t½: 11.1 min
mfGITR.mmh
  binding result: no binding
[1]
  fold activation, T-cell proliferation, plate-bound Ab 10.6 nM, donor 1: 0 fold
  fold activation, T-cell proliferation, plate-bound Ab 10.6 nM, donor 2: 3 fold
  fold activation, T-cell proliferation, plate-bound Ab 10.6 nM, donor 3: 3 fold
  fold activation, T-cell proliferation, plate-bound Ab 10.6 nM, donor 4: 4 fold
  fold activation, T-cell proliferation, plate-bound Ab 10.6 nM, donor 5: 3 fold
  fold activation, T-cell proliferation, plate-bound Ab 10.6 nM, donor 6: 6 fold
  fold activation, T-cell proliferation, plate-bound Ab 10.6 nM, donor 7: 4 fold
  fold activation, T-cell proliferation, plate-bound Ab 10.6 nM, donor 8: 1 fold
  fold activation, T-cell proliferation, plate-bound Ab 10.6 nM, mean: 3 fold
[2]
  fold activation, T-cell proliferation, 33 nM, FcgR anchored, donor 1: 1.8 fold
  fold activation, T-cell proliferation, 33 nM, FcgR anchored, donor 2: 1 fold
  fold activation, T-cell proliferation, 33 nM, FcgR anchored, donor 3: 1.4 fold
  fold activation, T-cell proliferation, 33 nM, FcgR anchored, donor 4: 1.5 fold
  fold activation, T-cell proliferation, 33 nM, FcgR anchored, donor 5: 2 fold
  fold activation, T-cell proliferation, 33 nM, FcgR anchored, mean: 1.5 fold
[3]
  % Activation, NF-kB-Luc, non-anchored: 20%
  % Blocking, NF-kB-Luc, non-anchored: 80%
  EC50, hGITR activation, NF-kB-Luc, non-anchored: 1.2 nM
  IC50, blocking of hGITRL stimulation, NF-kB-Luc, non-anchored: 0.9 nM
[4]
  fold activation, T-cell proliferation, 22 nM, non-anchored, donor 1: 0.7 fold
  fold activation, T-cell proliferation, 22 nM, non-anchored, donor 2: 0.9 fold
  fold activation, T-cell proliferation, 22 nM, non-anchored, donor 3: 1 fold
  fold activation, T-cell proliferation, 22 nM, non-anchored, donor 4: 1.7 fold
  fold activation, T-cell proliferation, 22 nM, non-anchored, mean: 1.1 fold
[5]
  Average Signal (RLU) at 100 nM: 8390 RLU
  EC50: 1.4 nM

B2: H4H14539P2 (antibody, human IgG4, V domains shown)
VH: QVQLVESGGGVVQPGRSLRLSCAASGFSFSSYGMHWVRQAPGKGLEWMAVIWYAGSNKFYADSVKGRFTISRDNSKNTLYLQMNSLTAEDTAVYYCARGSSLAAPDLYKYGMDVWGQGTTVTVSS
VL: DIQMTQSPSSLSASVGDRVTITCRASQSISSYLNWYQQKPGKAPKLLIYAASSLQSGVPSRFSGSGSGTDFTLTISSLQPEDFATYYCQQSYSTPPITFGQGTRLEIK
notes: human IgG4 (H4H)
hGITR.mmh
  Kd: 82.5 nM
  koff: 0.0177 s⁻¹
  kon: 214000 M⁻¹ s⁻¹
  t½: 0.7 min
hGITR.mFc
  Kd: 0.554 nM
  koff: 0.000472 s⁻¹
  kon: 853000 M⁻¹ s⁻¹
  t½: 24.5 min
mfGITR.mmh
  Kd: 22.8 nM
  koff: 0.00165 s⁻¹
  kon: 72300 M⁻¹ s⁻¹
  t½: 7 min
[1]
  fold activation, T-cell proliferation, plate-bound Ab 10.6 nM, donor 1: 2 fold
  fold activation, T-cell proliferation, plate-bound Ab 10.6 nM, donor 2: 12 fold
  fold activation, T-cell proliferation, plate-bound Ab 10.6 nM, donor 3: 12 fold
  fold activation, T-cell proliferation, plate-bound Ab 10.6 nM, donor 4: 13 fold
  fold activation, T-cell proliferation, plate-bound Ab 10.6 nM, donor 5: 12 fold
  fold activation, T-cell proliferation, plate-bound Ab 10.6 nM, donor 6: 39 fold
  fold activation, T-cell proliferation, plate-bound Ab 10.6 nM, donor 7: 11 fold
  fold activation, T-cell proliferation, plate-bound Ab 10.6 nM, donor 8: 6 fold
  fold activation, T-cell proliferation, plate-bound Ab 10.6 nM, mean: 13 fold
[2]
  fold activation, T-cell proliferation, 33 nM, FcgR anchored, donor 1: 0.9 fold
  fold activation, T-cell proliferation, 33 nM, FcgR anchored, donor 2: 0.7 fold
  fold activation, T-cell proliferation, 33 nM, FcgR anchored, donor 3: 1.1 fold
  fold activation, T-cell proliferation, 33 nM, FcgR anchored, donor 4: 1.5 fold
  fold activation, T-cell proliferation, 33 nM, FcgR anchored, donor 5: 1.5 fold
  fold activation, T-cell proliferation, 33 nM, FcgR anchored, mean: 1.1 fold
[3]
  % Activation, NF-kB-Luc, non-anchored: 20%
  % Blocking, NF-kB-Luc, non-anchored: 30%
  EC50, hGITR activation, NF-kB-Luc, non-anchored: 1.3 nM
  IC50, blocking of hGITRL stimulation, NF-kB-Luc, non-anchored: 1.2 nM
[4]
  fold activation, T-cell proliferation, 22 nM, non-anchored, donor 1: 0.5 fold
  fold activation, T-cell proliferation, 22 nM, non-anchored, donor 2: 0.8 fold
  fold activation, T-cell proliferation, 22 nM, non-anchored, donor 3: 1.1 fold
  fold activation, T-cell proliferation, 22 nM, non-anchored, donor 4: 0.8 fold
  fold activation, T-cell proliferation, 22 nM, non-anchored, mean: 0.8 fold
[5]
  Average Signal (RLU) at 100 nM: 4910 RLU
  EC50: 0.3 nM

B3: H4H14528P (antibody, human IgG4, V domains shown)
VH: QVQLVESGGGVVQPGRSLRISCAASGFTFNNYGFHWVRQAPGRGLEWVAVIWYSGSNKYYGDSVKGRFTISRDNSKNILYLQMNSLRAEDTAIYYCARFPFSSSWLLDYWGQGTLVTVSS
VL: DIQLTQSPSFLSASVGDRVTFTCWASQGISDYLAWYQQKPGKAPKLLIYAASALQSGVPSRFSGSGSGTEFTLTVSSLQPEDFATYYCQQLNSYPFTFGPGTKVDIK
notes: human IgG4 (H4H)
hGITR.mmh
  Kd: 51.3 nM
  koff: 0.00523 s⁻¹
  kon: 102000 M⁻¹ s⁻¹
  t½: 2.2 min
hGITR.mFc
  Kd: 1.12 nM
  koff: 0.00177 s⁻¹
  kon: 1.58e+06 M⁻¹ s⁻¹
  t½: 6.5 min
mfGITR.mmh
  binding result: no binding
[1]
  fold activation, T-cell proliferation, plate-bound Ab 10.6 nM, donor 1: 2 fold
  fold activation, T-cell proliferation, plate-bound Ab 10.6 nM, donor 2: 8 fold
  fold activation, T-cell proliferation, plate-bound Ab 10.6 nM, donor 3: 8 fold
  fold activation, T-cell proliferation, plate-bound Ab 10.6 nM, donor 4: 4 fold
  fold activation, T-cell proliferation, plate-bound Ab 10.6 nM, donor 5: 8 fold
  fold activation, T-cell proliferation, plate-bound Ab 10.6 nM, donor 6: 31 fold
  fold activation, T-cell proliferation, plate-bound Ab 10.6 nM, donor 7: 5 fold
  fold activation, T-cell proliferation, plate-bound Ab 10.6 nM, donor 8: 4 fold
  fold activation, T-cell proliferation, plate-bound Ab 10.6 nM, mean: 8 fold
[2]
  fold activation, T-cell proliferation, 33 nM, FcgR anchored, donor 1: 0.9 fold
  fold activation, T-cell proliferation, 33 nM, FcgR anchored, donor 2: 1.5 fold
  fold activation, T-cell proliferation, 33 nM, FcgR anchored, donor 3: 1.1 fold
  fold activation, T-cell proliferation, 33 nM, FcgR anchored, donor 4: 1.9 fold
  fold activation, T-cell proliferation, 33 nM, FcgR anchored, donor 5: 1.7 fold
  fold activation, T-cell proliferation, 33 nM, FcgR anchored, mean: 1.4 fold
[3]
  % Activation, NF-kB-Luc, non-anchored: 30%
  % Blocking, NF-kB-Luc, non-anchored: 90%
  EC50, hGITR activation, NF-kB-Luc, non-anchored: 1.1 nM
  IC50, blocking of hGITRL stimulation, NF-kB-Luc, non-anchored: 3.4 nM
[4]
  fold activation, T-cell proliferation, 22 nM, non-anchored, donor 1: 0.6 fold
  fold activation, T-cell proliferation, 22 nM, non-anchored, donor 2: 0.8 fold
  fold activation, T-cell proliferation, 22 nM, non-anchored, donor 3: 0.9 fold
  fold activation, T-cell proliferation, 22 nM, non-anchored, donor 4: 1 fold
  fold activation, T-cell proliferation, 22 nM, non-anchored, mean: 0.8 fold
[5]
  Average Signal (RLU) at 100 nM: 7310 RLU
  EC50: 0.45 nM

From patent US20170355774A1 (Regeneron, published 2017)
